The values below come from patent US20160237160A1 (Bayer, published 2016).

The target in test [1] is T1, TPP-2614 (TweakR-ECD-34-68-hIgGFc-His-D47A) (human).
T1 construct: also called D47A TWEAKR mutein
Put plainly: ELISA, antibody coated at 1 µg/ml, TWEAKR variant at 250 ng/ml, anti-HIS HRP; normalized by WT; the legend of B does not name the variant, D47A by paragraph 82 and paragraph 368. On the technique in general: An ELISA detects its analyte on a solid surface through an enzyme-linked reagent.
Method: Antibodies were coated (1 μg/ml), TWEAKR variant was added at 250 ng/ml, detection via anti-HIS HRP. […] Antibodies were coated (1 μg/ml), TWEAKR variant was added 250 ng/ml, detection via anti-HIS HRP.

In test [2] the target is T2, TPP-1777 (DOG-TNFRSF12Aaa28-80-hIgG1-Fc) (dog).
T2 construct: bivalent antigen; also called dog TWEAKR Fc
As to the kind of experiment: SPR, TWEAKR-Fc immobilized, IgG injected, bivalent analyte model (avidity mode).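 Note: kd derived as the ratio of fitted dissociation to association rate constants, with sensorgrams corrected against a reference flow cell and a buffer blank before fitting.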 In general terms: In SPR one partner is held on a chip, and binding of the other changes the refractive index at the surface.
Method: Sensorgrams were generated after in-line reference cell correction followed by buffer sample subtraction. The dissociation equilibrium constant (KD) was calculated based on the ratio of association (kₒₙ₁) and dissociation rated (koff1) constants, obtained by fitting sensorgrams with a bivalent analyte model using Biavaluation Software (version 4.0).

The target in test [3] is T3, BAFF-R (TNFRSF13C) Fc fusion protein (Human, UniProt Q96RJ3 1-78).
T3 construct: extracellular domain; bought
As to the kind of experiment: ELISA, Fc fusion protein coated at 1 µg/ml, TPP-2090 at 75 nM, Amplex Red.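 Note: binding reported as ELISA signal intensity in Rfu against a panel of TNF receptor superfamily members presented as Fc fusion proteins.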
From the text: (§1) Shown is the result of an ELISA: Y is “ELISA signal intensity [Rfu]”; X are “TNF receptor superfamily proteins tested (Fc-fusion proteins)”: 1 is “TWEAKR”; 2 is “TWEAKR”; 3 is “Apo-3”; 4 is “Trail-R1”; 5 is “Trail-R2”; 6 is “CD385”; 7 is “CD95”; 8 is “Rank”; 9 is “TNF-R1”; 10 is “TNF-R2”; 11 is “BAFF-R”; 12 is “DcR3”; 13 is “BCMA”; 14 is “TACI”; 15 is “OX40”; 16 is “CD30”; 17 is “CD27”; 18 is “CD40”; 19 is “Osteoprotegerin”; 20 is “EDAR”; 21 is “GITR”; 22 is “HVEM”; 23 is “NGF R”; 24 is “Trail R3”; 25 is “Lymphotioxin B R”; 26 is “Trail R4”; 27 is “EDA2R”; 28 is “TROY”; 29 is “RELT”; 30 is “4-1BB”.
(§2) To collect dose-response data a serial 3fold dilution of biotinylated IgG starting with a concentration of 2 μM was used as soluble binding partner. Detection was done with anti-hIgG1-HRP and Amplex Red.

Another test deals with T4, EDAR Fc fusion protein (Human, UniProt Q9UNE0 27-187).
T4 construct: extracellular domain; bought
T4 sequence (looked up): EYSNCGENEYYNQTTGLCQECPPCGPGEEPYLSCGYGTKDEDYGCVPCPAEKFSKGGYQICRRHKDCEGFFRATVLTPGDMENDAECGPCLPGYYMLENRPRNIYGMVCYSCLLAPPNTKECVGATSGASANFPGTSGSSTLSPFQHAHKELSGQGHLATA
Described as above.

Test [4] addresses T5, TPP-1984 (hTNFRSF12Aaa28-68-CT-His) (human).
T5 construct: monomeric ectodomain with HIS6 tag; also called TWEAKR(28-68)-HIS; C-terminally truncated TWEAKR ectodomain
T5 chain: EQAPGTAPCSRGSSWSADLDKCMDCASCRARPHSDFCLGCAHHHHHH
Put plainly: ELISA, TPP-1984 coated at 1 µg/ml, biotinylated IgG at 0.08 µg/ml (open bar) and 0.3 µg/ml (filled bar), Streptavidin-HRP, Amplex Red.
Method: Detection was done with Streptavidin-HRP and Amplex-Red substrate.
To analyze for binding, 1 μg/ml of the respective dimeric TWEAKR-Fc construct were coated and, 0.3 μg/ml and 0.08 μg/ml of biotinylated IgG were used as soluble binding partner. Detection was done with Streptavidin-HRP and Amplex-Red substrate.

Test [5] addresses T6, TPP-2624 (TweakR-ECD-34-68-hIgGFc-His-F63A) (human).
T6 construct: used as HEK293 supernatant
As to the kind of experiment: ELISA, IgG coated 1 ug/ml, HEK293 supernatant titrated.
Method: (§3) These TWEAKR(34-68)-Fc muteins were expressed in HEK293 cells. To collect dose-response data, IgGs were coated at a concentration of 1 μg/ml in a 384-well Maxisorp ELISA plate and a serial 2fold dilution of the TWEAKR mutein containing supernatant was used as soluble binding partner. Detection was done with anti-HIS-HRP and Amplex Red.

In test [6] the target is T7, TPP-2615 (TweakR-ECD-34-68-hIgGFc-His-K48A) (human).
T7 construct: used as HEK293 supernatant
Described as above.
Method: as §3

In test [7] the target is TPP-2610 (TweakR-ECD-34-68-hIgGFc-His-S41A) (human). The description is as above.
Method: as §3
Test [8] deals with T8, TPP-2613 (TweakR-ECD-34-68-hIgGFc-His-D45A) (human).
T8 construct: used as HEK293 supernatant
The description is as above.
Method: as §3

For test [9], the target named is T9, TPP-2616 (TweakR-ECD-34-68-hIgGFc-His-D51A) (human).
T9 construct: used as HEK293 supernatant
The description is as above.
Method: as §3

The target in test [10] is T10, TPP-2607 (TweakR-ECD-34-68-hIgGFc-His-S37A) (human).
T10 construct: used as HEK293 supernatant
Described as above.
Method: as §3

Test [11] addresses T11, TPP-2623 (TweakR-ECD-34-68-hIgGFc-His-D62A) (human).
T11 construct: used as HEK293 supernatant
The test is described as above.
Method: as §3

For test [12], the target named is T12, TPP-2621 (TweakR-ECD-34-68-hIgGFc-His-H60A) (human).
T12 construct: used as HEK293 supernatant
Described as above.
Method: as §3

For test [13], the target named is T13, TPP-2618 (TweakR-ECD-34-68-hIgGFc-His-R56A) (human).
T13 construct: used as HEK293 supernatant
Described as above.
Method: as §3

Test [14] addresses T14, TPP-2622 (TweakR-ECD-34-68-hIgGFc-His-S61A) (human).
T14 construct: used as HEK293 supernatant
The description is as above.
Method: as §3

Test [15] deals with T15, TPP-2617 (TweakR-ECD-34-68-hIgGFc-His-S54A) (human).
T15 construct: used as HEK293 supernatant
Described as above.
Method: as §3

Test [16] addresses T16, TPP-2609 (TweakR-ECD-34-68-hIgGFc-His-S40A) (human).
T16 construct: used as HEK293 supernatant
The test is described as above.
Method: as §3

Test [17] deals with T17, TPP-2620 (TweakR-ECD-34-68-hIgGFc-His-P59A) (human).
T17 construct: used as HEK293 supernatant
Described as above.
Method: as §3

Test [18] concerns the target T18, TPP-2611 (TweakR-ECD-34-68-hIgGFc-His-W42A) (human).
T18 construct: used as HEK293 supernatant; also called W42A (34-68 construct)
The description is as above.
Method: as §3

Test [19] has as its target T19, TPP-2625 (TweakR-ECD-34-68-hIgGFc-His-L65A) (human).
T19 construct: used as HEK293 supernatant
The description is as above.
Method: as §3

In test [20] the target is T20, TPP-2612 (TweakR-ECD-34-68-hIgGFc-His-S43A) (human).
T20 construct: used as HEK293 supernatant
The test is described as above.
Method: as §3

The target of test [21] is T21, TPP-2619 (TweakR-ECD-34-68-hIgGFc-His-R58A) (human).
T21 construct: used as HEK293 supernatant
The test is described as above.
Method: as §3

In test [22] the target is T22, TPP-2608 (TweakR-ECD-34-68-hIgGFc-His-R38A) (human).
T22 construct: used as HEK293 supernatant
The description is as above.
Method: as §3

In test [23] the target is TWEAKR (TNFRSF12A, FN14), human, on tumor cell lines (human, UniProt Q9NP84 28-129). Put plainly: cell-based or functional assay.

From the text for EDAR Fc fusion protein: as §1, §2

B1: TPP-2090 (antibody, human IgG1, kappa, V domains shown)
VH: EVQLLESGGGLVQPGGSLRLSCAASGFTFSPYPMIWVRQAPGKGLEWVSYISPSGGSTHYADSVKGRFTISRDNSKNTLYLQMNSLRAEDTAVYYCARGGDTYFDYFDYWGQGTLVTVSS
VL: DIQMTQSPSSLSASVGDRVTITCRASQSISGYLNWYQQKPGKAPKLLIYQASSLQSGVPSRFSGSGSGTDFTLTISSLQPEDFATYYCQQSYTSPFITFGQGTKVEIKR
notes: Human IgG1
For B1, the binding result was “no binding (tested: 250 ng/ml (TWEAKR variant))” in [1], “no binding (tested: 75 nM)” in [3], “no binding (tested: 75 nM)” in the test with EDAR Fc fusion protein and “binds” in [4]. The Kd in test [2] was found to be 6 nM.

B2: P4A8(TPP-1324) (antibody, human IgG1, kappa, V domains shown)
VH: QVQLVQSGAEVKKPGASVKVSCKGSGYTFTDYGMHWVRQAPGQGLEWMGVISTYNGYTNYNQKFKGRVTMTVDKSTSTAYMELRSLRSDDTAVYYCARAYYGNLYYAMDYWGQGTLVTVSS
VL: DIVLTQSPASLAVSLGQRATISCRASKSVSTSSYSYMHWYQQKPGQPPKLLIKYASNLESGVPARFSGSGSGTDFSLNIHPMEEDDTAMYFCQHSRELPFTFGGGTKLEIKR
notes: Human IgG1; variable domains from WO2009/140177 with constant region added
For B2, the binding result in test [5], in test [6], in test [7], in test [8], in test [9] and in test [10] was “no binding” throughout. In addition, the binding result in [11], in [12], in test [13], in test [14], in test [15] and in test [16] was “no binding” in each case. Moreover, the binding result in test [17], in [18], in test [19], in test [20], in test [21] and in test [22] was “no binding” each time. In test [23], the “Fold induction of Caspase 3/7, 786-O cells, 100 ug/ml” value is 1.1 fold. Besides, in test [23], the “Fold induction of Caspase 3/7, A253 cells, 100 ug/ml” value came out at 1.38 fold. For the same molecule, the “Fold induction of Caspase 3/7, HT-29 cells, 100 ug/ml” value in test [23] is 1.49 fold. Besides, in [23], the “Fold induction of Caspase 3/7, NCI-H322 cells, 100 ug/ml” value was found to be 1.02 fold. In [23], the “Fold induction of Caspase 3/7, WiDr cells, 100 ug/ml” value was found to be 1.12 fold.
